In the RNAGym collection of RNA variant scans (doi:10.1073/pnas.2313332121):

B1: TPR t1 (parent)
chain: GACCAAUCUGCCCUCAGAGCUCGAGAACAUCUUCGGAUGCAGAGGAGGCAGGCUUCGGUGGCGCGAUAGCGCCAACGUCCUCAACCUCCAAUGCAUCCCACCACAUGAUGAUGCCUGAAGAGCCUUGGUUUUUUG

Variants of: B1
Test: polymerase ribozyme fitness, log enrichment relative to wild type (log ratio); higher = more active; in vitro selection for triplet polymerase activity
How it was run: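 Each subunit of a heterodimeric triplet polymerase ribozyme was mutagenized into a library by PCR, transcribed, and subjected to one round of in vitro selection, run in triplicate. Libraries were annealed with a biotinylated primer, the partner subunit and triplets, incubated frozen at −7 °C, and extended constructs were gel-excised, captured on streptavidin beads and recovered by RT-PCR. Input and output libraries were sequenced on Illumina, keeping genotypes with ≥10 input reads and ≥1 read per output. Fitness is log base 2 of genotype enrichment divided by wild-type enrichment, from inverse-variance-weighted replicate averages.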

Variant	polymerase ribozyme fitness (log ratio)
U7G C88G	-0.456
U7C G23U A29G G60U G117A G128U	-6.24
U7G C31U	-3.68
C8A C15A A29U G42U	-3.65
C8A C13G A46U	-1.07
U7G U116G	-1.53
U7C C12G G44A U92A C102A C123U	-7.32
U7G G44A G63C U92A U125A	-4.07
C8A A18G C115A	-4.82
U7G C12G C13U A46U	-0.346
C8A A24C C31U U38A G45U C56G C70G C80A A111U G117C	-6.01
U7G C79U C124A	2.08
U7C G48U A91U G113U G117A	-7.92
U7A U106G G128C	-4.39
U7G C53U C88G C104U G113C U130G	-2.37
U7G C40U G69C C99U	-4.48
U7G A50G	0.715
C8A A74U C115U A118U C124U	-0.848
C8A A29U	-1.13
U7C C22U C64U C88U C123U	-2.65
U7C U21C G61U A83G G120A	-0.41

Variant	polymerase ribozyme fitness (log ratio)
U7C C49A G61U A75U U96A	-0.699
U7C C40A U109A U129A	-6.42
C8A A103G G110U	-5.33
U7G C15U C28G U32A A41U G63U C89A U116C	-4.52
U7C C13U A105U	-1.79
C8A C12G C64U G110U	-0.685
C8A A41C G44U C62U C99U A111U G127A	-7.45
U7G C8A G63U G65C	-6.38
U7G U21A A26G G47U C123U U129A U133G	-3.24
U7C G42C C72A C88U C115U	-1.49
C8A A26U C89G C94U C124G U125G G127U	-3.87
C8A C12U C13G C98U	-1.16
C8A C11G U54C U106A	0.24
C8A C12G G23U G71U C86U G120C	-5.74
U7C C40G A95U C102A	-5.2
C8A A50C U92C	-1.6
U7G U14G C34G C72U	-5.84
U7G C56U	0.612
U7C A27G G69C	-2.37
U7C A27G G63A	-1.53
C8A A24G G113A	-3.12

Variant	polymerase ribozyme fitness (log ratio)
U7G G48A C70A C101A	-2.19
U7C G48U C53U G77A U81A U96C G120C	-2
C8A A84U C102A	-1.91
C8A A68G C73G U78G C101U U112A	-5.78
U7G U14G C94A	-0.903
U7C A46U C76G	-0.0822
C8A A50C C97G	-4.72
U7G C34U G58A	-5.02
U7C G61C	-1.87
U7G C20U C115U	-2.32
U7C C85G	-1.66
U7G A111C U112A C123G	-0.393
U7G C11U G69C C88A	-1.91
U7C G71U U112A U133A	1.1
C8A C12U C86G C104A	-1.31
U7G A74G	-0.0909
C8A C13G G61U A84U	-0.177
U7C A18C	-1.7
U7C A26G G45A	-2.55
C8A A37U C86U	-0.337
U7G U14A C56U U78C A84C C101A	-1.53

Variant	polymerase ribozyme fitness (log ratio)
U7G C11G U33A A90G C101A	-6.24
U7C C11G G65C A83U G120C A121U	-6.35
U7G C20A G39A C49G A121G	-2.45
U7G C12U C20A	-1.34
U7G A41U C62U U132C	-0.941
U7G C34U G69U C123U U133C	1.52
C8A A18U G45C A75U U109A	-6.43
U7G C8A C15U G36A C56G C70G U78C C82G U106A	-4.94
U7G C115U	-1.47
U7G G10A G45U U96G G117U	-2.43
U7G U106G G117U	-3.33
C8A A24U G25U A43G C70G A105C U112G	-7.66
U7G G36A A50C	-0.431
C8A A68G C114A	-4.66
U7G C13G C40U	0.145
U7C A74G C79A G93A U106C G117U U129C U130C	-5.05
U7C C34A G35U C56U C94A G110C	-7.29
U7G G57A C94A C99U A121C	-5.61
C8A A41U A84G	-2.05
U7C G58A C70U U78C U116C U131G	-1.13
C8A A16C G39U C102A	-4.53
